According to paper PMC11490574, “IGF2BP1 phosphorylation in the disordered linkers regulates ribonucleoprotein condensate formation and RNA metabolism”:

B1: EIF2A 200 nt (ssRNA)
RNA: AGAAAAUUCAGAAAGAAACAGCCCUUCUCCAGGAGCUGGAAGAUUUGGAAUUGGGUAUUUAAAGAUUCACGGAAAGCAAGUUGAUGACCAGAAAUCAGUGCAAACACAUCUUCUGUUAAACCCAUUGGUAUACACAGAAUAUUCCUGUGCCCACACUUAAUGUCAAUCUAUAAUUUUAACCAUUUAUCCAAGAUUCUACU
B2: MYC 191 nt (ssRNA)
RNA: UGCGUGACCAGAUCCCGGAGUUGGAAAACAAUGAAAAGGCCCCCAAGGUAGUUAUCCUUAAAAAAGCCACAGCAUACAUCCUGUCCGUCCAAGCAGAGGAGCAAAAGCUCAUUUCUGAAGAGGACUUGUUGCGGAAACGACGAGAACAGUUGAAACACAAACUUGAACAGCUACGGAACUCUUGUGCGUAA
B3: XBP1 201 nt (ssRNA)
RNA: UCUCAAAUCUGCUUUCAUCCAGCCACUGCCCAAAGCCAUCUUCCUGCCUACUGGAUGCUUACAGUGACUGUGGAUACGGGGGUUCCCUUUCCCCAUUCAGUGACAUGUCCUCUCUGCUUGGUGUAAACCAUUCUUGGGAGGACACUUUUGCCAAUGAACUCUUUCCCCAGCUGAUUAGUGUCUAAGGAAUGAUCCAAUACU

Experiments:
IGF2BP1 KH1-4 = IGF2BP1 KH1-4 (UniProt Q9NZI8 195-553); test: fluorescence anisotropy; EMSA: 25 mM HEPES pH 7.3, 150 mM NaCl, 5% glycerol, 2 mM EDTA, 10 ug/mL heparin, 0.5 mM TCEP, on ice, gel 4 C; FA: 25 mM HEPES 7.3, 150 mM NaCl, 0.025% Tween 20, 10 ug/mL heparin, 2 mM EDTA, 0.5 mM TCEP, 10 nM RNA, 20 C; conditions: protein: recombinant; tags: His removed by 3C; label: 5'-fluorescein
Chain of IGF2BP1 KH1-4 (Q9NZI8 195-553): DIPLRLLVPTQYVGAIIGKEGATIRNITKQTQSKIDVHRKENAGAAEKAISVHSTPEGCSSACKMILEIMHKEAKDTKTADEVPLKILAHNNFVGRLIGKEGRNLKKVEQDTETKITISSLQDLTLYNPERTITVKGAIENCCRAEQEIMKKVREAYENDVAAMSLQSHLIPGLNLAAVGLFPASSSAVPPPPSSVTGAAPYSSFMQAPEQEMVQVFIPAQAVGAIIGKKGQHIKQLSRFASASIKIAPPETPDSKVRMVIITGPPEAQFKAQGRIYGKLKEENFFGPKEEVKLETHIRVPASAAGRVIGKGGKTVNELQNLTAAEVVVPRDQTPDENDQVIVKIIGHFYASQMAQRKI

IGF2BP1 KH3-4 = IGF2BP1 KH3-4 (UniProt Q9NZI8 405-553); test: as above; conditions: protein: recombinant; tags: His removed by 3C; label: 5'-fluorescein
Chain of IGF2BP1 KH3-4 (Q9NZI8 405-553): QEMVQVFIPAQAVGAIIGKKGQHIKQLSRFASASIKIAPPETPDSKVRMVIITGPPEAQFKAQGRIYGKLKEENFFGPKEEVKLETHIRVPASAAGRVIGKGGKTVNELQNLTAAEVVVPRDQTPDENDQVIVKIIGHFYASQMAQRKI

IGF2BP1 wild-type [1] = biological target: T1, IGF2BP1 wild-type (UniProt Q9NZI8 1-577); test: as above; conditions: protein: recombinant; tags: GST removed by 3C; label: 5'-fluorescein
T1 sequence (Q9NZI8 whole entry): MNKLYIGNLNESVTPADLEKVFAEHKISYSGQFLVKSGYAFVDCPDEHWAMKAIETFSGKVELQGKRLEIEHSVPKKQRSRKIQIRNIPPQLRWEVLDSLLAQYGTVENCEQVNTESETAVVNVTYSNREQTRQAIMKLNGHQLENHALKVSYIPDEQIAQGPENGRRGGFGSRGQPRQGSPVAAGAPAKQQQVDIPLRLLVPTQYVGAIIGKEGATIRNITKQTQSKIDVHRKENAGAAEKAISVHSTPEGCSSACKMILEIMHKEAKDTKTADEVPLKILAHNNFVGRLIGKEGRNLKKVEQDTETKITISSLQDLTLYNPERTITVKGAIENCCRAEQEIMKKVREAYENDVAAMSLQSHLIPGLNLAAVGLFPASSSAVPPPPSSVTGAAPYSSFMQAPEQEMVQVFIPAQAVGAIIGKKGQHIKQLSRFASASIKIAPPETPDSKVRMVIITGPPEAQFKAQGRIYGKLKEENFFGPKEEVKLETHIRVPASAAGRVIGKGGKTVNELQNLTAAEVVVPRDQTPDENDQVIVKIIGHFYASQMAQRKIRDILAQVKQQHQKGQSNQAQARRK

IGF2BP1 S181E [2] = biological target: T2, IGF2BP1 S181E (UniProt Q9NZI8 1-577, S181E); test: EMSA; EMSA: 25 mM HEPES pH 7.3, 150 mM NaCl, 5% glycerol, 2 mM EDTA, 10 ug/mL heparin, 0.5 mM TCEP, on ice, gel 4 C; FA: 25 mM HEPES 7.3, 150 mM NaCl, 0.025% Tween 20, 10 ug/mL heparin, 2 mM EDTA, 0.5 mM TCEP, 10 nM RNA, 20 C; conditions: protein: recombinant; tags: GST removed by 3C
T2 sequence (Q9NZI8 whole entry S181E): as the sequence (Q9NZI8 whole entry) above, with S181E counted along it

IGF2BP1 Y396E [3] = biological target: T3, IGF2BP1 Y396E (UniProt Q9NZI8 1-577, Y396E); test: as above; conditions: protein: recombinant; tags: GST removed by 3C
T3 sequence (Q9NZI8 whole entry Y396E): as the sequence (Q9NZI8 whole entry) above, with Y396E counted along it

IGF2BP1 wild-type [4] = biological target: T1, IGF2BP1 wild-type; test: as above; conditions: protein: recombinant; tags: GST removed by 3C
IGF2BP1 S181E [5] = biological target: T2, IGF2BP1 S181E; test: fluorescence anisotropy; EMSA: 25 mM HEPES pH 7.3, 150 mM NaCl, 5% glycerol, 2 mM EDTA, 10 ug/mL heparin, 0.5 mM TCEP, on ice, gel 4 C; FA: 25 mM HEPES 7.3, 150 mM NaCl, 0.025% Tween 20, 10 ug/mL heparin, 2 mM EDTA, 0.5 mM TCEP, 10 nM RNA, 20 C; conditions: protein: recombinant; tags: GST removed by 3C; label: 5'-fluorescein
IGF2BP1 RQ [6] = biological target: T4, IGF2BP1 RQ (UniProt Q9NZI8 1-577, R167Q;R168Q;R174Q;R178Q); test: as above; conditions: protein: recombinant; tags: GST removed by 3C; label: 5'-fluorescein
T4 sequence (Q9NZI8 whole entry R167Q/R168Q/R174Q/R178Q): as the sequence (Q9NZI8 whole entry) above, with R167Q, R168Q, R174Q, R178Q counted along it

IGF2BP1 Y396E [7] = biological target: T3, IGF2BP1 Y396E; test: as above; conditions: protein: recombinant; tags: GST removed by 3C; label: 5'-fluorescein
[8] = biological target: T5, IGF2BP1 KH3-4dR (KH3GEEG-KH4GEEG) (UniProt Q9NZI8 1-577, K423E;K424E;K505E;G506E); test: as above; conditions: protein: recombinant; tags: GST removed by 3C; label: 5'-fluorescein
T5 sequence (Q9NZI8 whole entry K423E/K424E/K505E/G506E): as the sequence (Q9NZI8 whole entry) above, with K423E, K424E, K505E, G506E counted along it

IGF2BP1 RQ [9] = biological target: T4, IGF2BP1 RQ; test: EMSA; EMSA: 25 mM HEPES pH 7.3, 150 mM NaCl, 5% glycerol, 2 mM EDTA, 10 ug/mL heparin, 0.5 mM TCEP, on ice, gel 4 C; FA: 25 mM HEPES 7.3, 150 mM NaCl, 0.025% Tween 20, 10 ug/mL heparin, 2 mM EDTA, 0.5 mM TCEP, 10 nM RNA, 20 C; conditions: protein: recombinant; tags: GST removed by 3C
[10] = biological target: T5, IGF2BP1 KH3-4dR (KH3GEEG-KH4GEEG); test: as above; conditions: protein: recombinant; tags: GST removed by 3C

Row | Binder | apparent K (half saturation) (IGF2BP1 KH1-4) [nM] | apparent K (half saturation) (IGF2BP1 KH3-4) [nM] | apparent K (half saturation) (IGF2BP1 wild-type [1]) [nM] | apparent K (half saturation) (IGF2BP1 S181E [2]) [nM] | apparent K (half saturation) (IGF2BP1 Y396E [3]) [nM] | apparent K (half saturation) (IGF2BP1 wild-type [4]) [nM] | apparent K (half saturation) (IGF2BP1 S181E [5]) [nM] | binding result (IGF2BP1 RQ [6]) | apparent K (half saturation) (IGF2BP1 Y396E [7]) [nM] | apparent K (half saturation) [8] [nM] | binding result (IGF2BP1 RQ [9]) | apparent K (half saturation) [10] [nM]
1 | ACCGGACUGUUACCAACACCCACACCCC (ssRNA) [ACTB 28 nt] | 75.2 | 1570 | 68.5 |  |  |  |  |  |  |  |  | 
2 | B1 |  |  |  | 35.4 | 40.2 | 48.2 |  |  |  |  |  | 
3 | B2 |  |  |  | 17.8 | 16.7 | 14.4 |  |  |  |  |  | 
4 | GUGACAUGUCCUCUCUGCUUGGUGUAAACCAUUCUU (ssRNA) [XBP1 36 nt] | 204 | ~1500 | 312 |  |  |  | 310 | binds | 423 | 186 |  | 
5 | B3 |  |  |  | 17.1 | 22.9 | 41 |  |  |  |  | binds | 64.7
